# Target: T1, CD3 epsilon homodimer protein (UniProt P07766 23-126)
# T1 construct: also called CD3 (CD3 epsilon)
# Experiment: SPR Biacore T200, CD3 epsilon homodimer on chip, antibody as analyte;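 note: homodimer amine-coupled to a CM4 sensor chip, run at 25 °C in HBS-EP+ buffer, with kinetic parameters derived in Biacore T200 Evaluation Software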
# Description: An appropriate amount of CD3 epsilon homodimer protein was immobilized onto Sensor chip CM4 (GE Healthcare Japan Corp.) by the amine coupling method. Then, the antibody having an appropriate concentration was injected thereto as an analyte and allowed to interact with the CD3 epsilon homodimer protein on the sensor chip. Then, the sensor chip was regenerated by the injection of 10 mmol/L glycine-HCl (pH 1.5). The assay was conducted at 25 degrees C., and HBS-EP+(GE Healthcare Japan Corp.) was used as a running buffer. […] Each parameter was calculated using Biacore T200 Evaluation Software (GE Healthcare Japan Corp.).
# Specifically, when the amount of the antibody comprising CE115HA000 bound was defined as X and the amount of the H chain one-amino acid altered form bound was defined as Y, a value of Z (ratio of amounts bound)=Y/X was used.
# T1 sequence (P07766 23-126): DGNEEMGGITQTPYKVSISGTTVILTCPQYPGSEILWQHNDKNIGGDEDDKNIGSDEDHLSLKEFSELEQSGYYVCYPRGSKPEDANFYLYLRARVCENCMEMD
row,KD ratio (KD of CE115HA000 / KD of altered form),Binder
1,28.1,"CE115HA000 H chain altered form H35V (antibody, human IgG1, kappa, L234A L235A, N297A, name in Kabat numbering, one-arm antibody) heavy: QVQLVESGGGVVQPGRSLRLSCAASGFTFSNAWMVWVRQAPGKGLEWVAQIKAKSNNYATYYAESVKGRFTISRDDSKNSLYLQMNSLKTEDTAVYYCRYVHYGAYYGVDAWGQGTTVTVSSASTKGPSVFPLAPSSKSTSGGTAALGCLVKDYFPEPVTVSWNSGALTSGVHTFPAVLQSSGLYSLSSVVTVPSSSLGTQTYICNVNHKPSNTKVDKKVEPKSCDKTHTCPPCPAPEAAGGPSVFLFPPKPKDTLMISRTPEVTCVVVDVSHEDPEVKFNWYVDGVEVHNAKTKPREEQYASTYRVVSVLTVLHQDWLNGKEYKCKVSNKALPAPIEKTISKAKGQPREPQVYTLPPSRCELTKNQVSLSCAVKGFYPSDIAVEWESNGQPENNYKTTPPVLDSDGSFFLVSKLTVDKSRWQQGNVFSCSVMHEALHNHYTQKSLSLSPDYKDDDDK EPKSSDKTHTCPPCPAPELLGGPSVFLFPPKPKDTLMISRTPEVTCVVVDVSHEDPEVKFNWYVDGVEVHNAKTKPREEQYNSTYRVVSVLTVLHQDWLNGKEYKCKVSNKALPAPIEKTISKAKGQPREPQVCTLPPSRDELTKNQVSLWCLVKGFYPSDIAVEWESNGQPENNYKTTPPVLDSDGSFFLYSKLTVDKSRWQQGNVFSCSVMHEALHNRYTQKSLSLSP light: DIVMTQSPLSLPVTPGEPASISCRSSQSLVHSNRNTYLHWYQQKPGQAPRLLIYKVSNRFSGVPDRFSGSGSGTDFTLKISRVEAEDVGVYYCGQGTQVPYTFGQGTKLEIKRTVAAPSVFIFPPSDEQLKSGTASVVCLLNNFYPREAKVQWKVDNALQSGNSQESVTEQDSKDSTYSLSSTLTLSKADYEKHKVYACEVTHQGLSSPVTKSFNRGEC"
2,50.4,"CE115HA000 H chain altered form H35W (antibody, human IgG1, kappa, L234A L235A, N297A, name in Kabat numbering, one-arm antibody) heavy: QVQLVESGGGVVQPGRSLRLSCAASGFTFSNAWMWWVRQAPGKGLEWVAQIKAKSNNYATYYAESVKGRFTISRDDSKNSLYLQMNSLKTEDTAVYYCRYVHYGAYYGVDAWGQGTTVTVSSASTKGPSVFPLAPSSKSTSGGTAALGCLVKDYFPEPVTVSWNSGALTSGVHTFPAVLQSSGLYSLSSVVTVPSSSLGTQTYICNVNHKPSNTKVDKKVEPKSCDKTHTCPPCPAPEAAGGPSVFLFPPKPKDTLMISRTPEVTCVVVDVSHEDPEVKFNWYVDGVEVHNAKTKPREEQYASTYRVVSVLTVLHQDWLNGKEYKCKVSNKALPAPIEKTISKAKGQPREPQVYTLPPSRCELTKNQVSLSCAVKGFYPSDIAVEWESNGQPENNYKTTPPVLDSDGSFFLVSKLTVDKSRWQQGNVFSCSVMHEALHNHYTQKSLSLSPDYKDDDDK EPKSSDKTHTCPPCPAPELLGGPSVFLFPPKPKDTLMISRTPEVTCVVVDVSHEDPEVKFNWYVDGVEVHNAKTKPREEQYNSTYRVVSVLTVLHQDWLNGKEYKCKVSNKALPAPIEKTISKAKGQPREPQVCTLPPSRDELTKNQVSLWCLVKGFYPSDIAVEWESNGQPENNYKTTPPVLDSDGSFFLYSKLTVDKSRWQQGNVFSCSVMHEALHNRYTQKSLSLSP light: DIVMTQSPLSLPVTPGEPASISCRSSQSLVHSNRNTYLHWYQQKPGQAPRLLIYKVSNRFSGVPDRFSGSGSGTDFTLKISRVEAEDVGVYYCGQGTQVPYTFGQGTKLEIKRTVAAPSVFIFPPSDEQLKSGTASVVCLLNNFYPREAKVQWKVDNALQSGNSQESVTEQDSKDSTYSLSSTLTLSKADYEKHKVYACEVTHQGLSSPVTKSFNRGEC"
